# Assay results published in the RNAGym collection of RNA variant scans (doi:10.1073/pnas.2313332121).
# B1: TPR t1 (parent)
# chain: GACCAAUCUGCCCUCAGAGCUCGAGAACAUCUUCGGAUGCAGAGGAGGCAGGCUUCGGUGGCGCGAUAGCGCCAACGUCCUCAACCUCCAAUGCAUCCCACCACAUGAUGAUGCCUGAAGAGCCUUGGUUUUUUG
# Variants of: B1
# Test: polymerase ribozyme fitness, log enrichment relative to wild type (log ratio); higher = more active; in vitro selection for triplet polymerase activity
# Method in brief: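 Both subunits of a heterodimeric triplet polymerase ribozyme were given their own mutant library, built by PCR and transcribed. Each library was annealed with a biotinylated primer, the partner subunit and triplets, incubated frozen at −7 °C, and its extended constructs gel-excised, captured on streptavidin beads and amplified by RT-PCR, all in one round done in triplicate. Fitness is the logarithm of genotype enrichment relative to wild-type enrichment, with replicates averaged by inverse-variance weighting. That logarithm is base 2, and Illumina-sequenced genotypes needed ≥10 input reads and ≥1 read per output.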
row,Variant,polymerase ribozyme fitness (log ratio)
1,U9A C56A,0.00188
2,U9A A43U C70U C82A U87C U131A,-1.6
3,U9G G45A G93U C114A,-2.75
4,U9C C49A C123U,1.45
5,U9A G120C,1.21
6,U9G C15A G58A C97U U116G U129G,-5.21
7,U9C U125A,0.386
8,C8G U30C C70U G113C U133A,-5.26
9,U9C C11U G71A A111C,-1.02
10,U9C C13U A27U A46C G52A G113A,-6.07
11,C8U U96G G110U,-2.02
12,C8U C28G U109A,-4.64
13,C8U U14C U78C U106A G120A,1.87
14,U9G G23U,-6.6
15,C8U G71A,-0.229
16,U9G C72U C94A G110A G113U A121G,-6.14
17,U9A C13G G35A,-3.79
18,U9G C72G U87G,-0.102
19,C8U G44U C88G U92A,-3.81
20,C8U U129G U133A,-1.94
21,C8U C22G G45A G47C A100U,-4.96
22,U9A G51A U112A,-2.45
23,U9A A24G G42A G52C C72G,-3.17
24,C8U G44U C88G,-1.96

row,Variant,polymerase ribozyme fitness (log ratio)
1,C8U G117A A119U C123U U133G,-1.22
2,C8U G52U C86A,-1.28
3,C8U G48C C56A,-0.762
4,U9A C86G,0.0417
5,U9A C64U G117A,0.77
6,C8G U96C C104U,0.578
7,U9C C40G C101U,-0.436
8,U9G C20G G44C C72U C114G,-6.99
9,C8U A119G U126G G127U,-0.0945
10,U9G C22G C101A C115U,-3.13
11,U9G C20A C22U C86U,-4.49
12,C8U C82U U116G G117A,0.198
13,C8U G117U U126C,-3.25
14,C8U G42U A50U,-3.49
15,U9A G71A C85A G93A C102A,-3.84
16,C8U G58A G110A,-1.27
17,U9G C12A G57U A111U C114A U133A,-5.59
18,C8U C12U C70G C94A,-3.02
19,U9A G39C C62A U78A U87G G110U,-5.8
20,U9C C28U G36U A121G,0.0298
21,U9G C53U A95C C115A,0.969
22,U9A C89G A90U,-0.63
23,C8G U9C C56G G69A,-2.35
24,U9C C82A U109G C124U U131C,-3.57

row,Variant,polymerase ribozyme fitness (log ratio)
1,C8U A50U C94A,-1.52
2,U9C G17A A43U A50U A74C G120U,-4.05
3,U9A U32A C62U C114A,-4.44
4,C8U A100C G117A,-1.87
5,U9G C28U G61U C72G U87A G122A,-1.55
6,U9G C13U C49G C82U,-0.776
7,U9A G10C C13U C40A C80A G122A,-3.43
8,U9C C15G A43U,-1.5
9,U9C A41C G52A C98U U130G,-2.71
10,U9A A90U U96C U106A G128C,-5.11
11,C8U C12A G42A C70U U92A,-4.6
12,U9C U81A U116A G122U C124U,-0.783
13,U9A G110C U130A,-4.06
14,C8U G19A U21C U55C,-2.54
15,C8U A121U,2.15
16,C8U G57U G110U,-1.01
17,C8U G44U C99U,-2.6
18,C8U C22U G39U G113A G120C C123A,-5.45
19,U9G A46U G48U C76U C124U,-1.24
20,U9C G19U C70U,-3.94
21,C8U C15U G36A A68G C97U G120A,-1.91
22,C8U A26U U59G,-2.5
23,U9A C20G U96G C124U,-3.29
24,U9C A41U C70A U125A,-4.15

row,Variant,polymerase ribozyme fitness (log ratio)
1,C8U C11A,0.824
2,U9A C62A C85G U131C,-1.16
3,U9C A50U C94U,-2.36
4,C8G U55A,0.0363
5,C8U C49U G71C G117U G120A C124A,-1.83
6,U9A A46G C85U U125A,-1.94
7,C8G U9G C12A G69A C88G U132A,-4.01
8,C8U U38G G51A,-3.4
9,U9C A26G C34A G39A C97A C115A A121G,-1.6
10,U9A G51A G52A C70G C82U G120C,-5.71
11,C8U C12U C64A C123U,-4.54
12,U9C C31U A37U,-5.02
13,U9A A29U A41U G60A U78C G93U A119G,-2.57
14,C8U C104G U106A C124G,-3.63
15,U9G C12G U33A G42A C72G G93A G110U U116A,-7.22
16,U9A C13G U32A G39C A41U G60C C88U G117A,-7.75
17,C8U C114G U126C,-1.85
18,U9A C13U U92A C101A,-4.36
19,C8U G60C G61C C72A C101U,-1.33
20,C8U C28G,-1.19
21,U9A C22U,-3.34
22,C8U A27G C82A,-1.59
23,U9C U14A U21C A43C G117A A119G,-1.44
24,U9A C56U C73U,0.233

row,Variant,polymerase ribozyme fitness (log ratio)
1,U9A C11A C70U C85U,-1.15
2,U9G A37U G39A G45U A46U C94G,-5.9
3,U9A U87A,1.16
4,C8U G48A A50G,-1.52
5,U9A G36A G113A,-0.728
6,C8U C73A C123A,2.02
7,U9G C49A C104A,-1.57
8,C8U C99U,-2.32
9,U9A U78A,-0.206
10,C8U G51A C56A G120U,-3.67
11,U9A A37U A41G,0.164
12,U9G C82G,-0.102
13,U9G G44U G58A G60U C102U U106A U133C,-3.81
14,U9C G42C C53A U55C U130G,-1.45
15,U9A A18G C82U C115U,-3.35
16,U9G G10U C12G A111G,0.61
17,U9G C20A,-2.5
18,U9G C73U G113A,-0.47
19,U9C C40U U112G,0.239
20,U9A A24C U59C A91U A111C,-6.66
21,U9G C11U G35U G69U C89U,-3.13
22,U9G A18C G117A,0.733
23,U9A G39C,-0.517
24,C8U C62A C98U,-1.15

row,Variant,polymerase ribozyme fitness (log ratio)
1,U9G C56U,-0.823
2,C8G U9G,0.256
3,C8G U9G C73G C123A,1.1
4,U9G C12A U14G G63U C99A G120C,-6.39
5,U9C U133G,0.11
6,C8U C82U G113U,-2.67
7,U9A A37U,0.568
8,C8U C62U C79U C82U A91U A105G C123G U129G U131G,-5.84
9,U9C G52A C104U A121U,2.1
10,C8U G120U,1.14
11,C8U G19C G42U A91G C123U,-0.955
12,U9G C11G G45C,-5.66
13,C8U A29U U59C A121G,-1.03
14,C8U U21A U30C C56U,-3.2
15,U9G G36C C56U C76U C85U A118U,-2.3
16,C8G U9C C56G,0.364
17,U9A A83U,0.0435
18,U9A G63C A84U G120A,0.752
19,C8U A24G U112G,-0.0167
20,U9G G39A,0.968
21,C8U C12G,0.586
22,C8U C40U,0.0119
23,U9C C34U C56G G77A U106A G113A A121G,-3.53
24,U9C G36U C104A C115A,-1.3

row,Variant,polymerase ribozyme fitness (log ratio)
1,U9G C20A U131A,-1.99
2,C8U G57U U112A,1.64
3,U9A A84U A121C,2.06
4,U9A C11U A100U,-0.0164
5,U9C G48U G52C G117U,-2.68
6,U9C G52A C89A G117A,-1.63
7,C8U G17A,-2.57
8,C8U U33A,-3.59
9,U9C C70U,-0.0921
10,U9A A75U U96G,-0.383
11,C8G U14C G45A A84G,-0.446
12,U9C G19A U96A A121G U132A,-1.11
13,C8U G61A,0.644
14,C8U C124U,1.6
15,C8U C124A,2.27
16,U9G C70U,-0.679
17,U9G C13U C73U A119G,1.11
18,C8U U21C U87G G122A,-0.0757
19,U9C G17U C20G G25C C115U,-6.98
20,U9C A27G C56A U92A,-3.57
21,C8U C13U A37C C70U A119G,-0.292
22,C8U A29G A43G,-3.05
23,C8U C64U U96C,-0.074
